Source: a protein production outcome set (Wang et al. 2014)

Assay: label from the status in PepcDB records

Sequence	protein production
MTHVRIVMVNTTLPANIGSALRAMKTMGLSQLVLVAPKTYPHPDIDALAAGAQDLVEKIKIVDTLEQAIQDCHIVFGTSARSRTIPWPLLDARPAAELSMDAVITRQQEIAIVFGREDRGLTNEELALANYHLTIPVNTDYGVLNVAQAIQVICYEMRMATLAQVQNDQASSDSQKMQVTEKIEMDWDEPLVNHQQMEEFYPHLEKMLVDIEFLDPQNPRLLPLRLRRLFGRAQLDRMEYHLLRGIFSRVQALSHGKWKKTALDKEEQSDV	failed
MGTEAEQPSPPAQQQDQENPPLCKAQNPKPARLYRFVLIFVAGSLAAWTFHALSSTNLVWKLRQLHHLPTAHYLQTRDEFALYSVEELNAFKEFYDKSVSDSVGASYTEAEQTNIKEALGALRMAQDLYLAGKDDKAARLFEHALALAPRHPEVLLRYGEFLEHNQRNIVLADQYYFQALTISPSNSEALANRQRTADVVQSLDERRLESLDSKRDALSAIHESNGALRRAKKEAYFQHIYHSVGIEGNTMTLAQTRSILETRMAVDGKSIDEHNEILGMDLAMKYINASLVQKIDITIKDILELHRRVLGHVDPIEGGEFRRNQVYVGGHIPPGPGDLALLMQRFERWLNSEHSSTLHPVNYAALAHYKLVHIHPFVDGNGRTSRLLMNTLLMRAGYPPVIIPKQQRSKYYHFLKLANEGDIRPFVRFIADCTEKTLDLYLWATSDLPQQIPMLIQTESEAGERLAQMQSPNVAQRSSILEFYESGSGDLP	failed
NFVPGMEFSMADASSIAIIGGADGPTAIFLASQLSPDLLGAIAVAAYSYMALVPIIQPPIMKALTTPEERKIKMAQLRHVGKTEKIVFPLV	failed
MKLLLIGYGNVGKAFRRLLHEKKDNYPILQGVEIAGIITRQGLMVGDKENFSPDKQLTVLEAIDYINPDVIVDMSVPNYKDGEPSVSAYIKALSRKIHVITVNKAPLALKFREIFEVAEKTGAKIGFQGTVMSGTPSINLFRIQPVAEVSRIRGILNGTTNYILTRIYEGLSFNEALKEAKEKGYAEEDPTLDLNGFDAAAKLTILSNFIMNRSLKLGDFKFKGITEITNEEIRRAKSEGKKIKLIAYADNYVVQVSPQIIGPQDPLYYIDGVENALEIQNEIQRIIIRGPGAGPINAAYGALSDLVLLLEGCL	failed
MQNMFDGVQLFVEVVEAGGFAKAGKRLSLTRSTIGKAIARLEMRLGVQLFQRTTRVQSLTEDGQQYYERCLRAIKELRAGEAMLEQGRREVAGRLHVSLPVLFGRQCVAPILRTYAREHPQLELELNFSDHHVDLIADGFDLAVRNGPLGNGTTLRARRLGNQRKILCASPTYLAARGKPHTLADLADHDLLTYCRNDRNMAWTLPDATGALVDIPITSRLRCNDLEVIADTAVDGMGVAWLPYWLLMERMQRGELIGIWGDRPSAVIECHVVWPAAQHVPLRSRLAINLLAAELPKYLEA	failed
MARLGKKSRNGAFWAKALERAHLGVWDWDLRSGDCFYSATWARMLGYEEDELANTSDLWLQLTHPDDRERALASGDRHIAGLTDAIETELRLKHKLGHWVWVLDRGGIVESGADGRPLRLMGVQTDISKQKAAEAALEQVTMRFRLALAASGTGIWHYDIATHKSYWDARTREMFGVVADADEVAADLWHSFLHPDDKEATERAHWPSPGSNGVTASQYRIVKRDGEIRHIESLVRYVAAAGAAGQILGTVRDITEDKLREQELAFAARHDALTGLWNRAAFDRLLADHIAKGVPLAVFYVDLDYFKALNDFAGHAAGDLALKSVAAGIGRCLPPSAHAARLGGDEFALLVPHCDAAQAERLAAAILAAVRSADLGLAATARRLAASIGIAIVNDRATTVADALACADDACYAAKAAGRDRFAVFSAEAATGGLNAARLAADTVDAMEDGRLKLFGQEIHRLGRPWQENRHVEVLARLVGRGGKLIPPSEFIPAAERFGIAARLDRWIIRTALSRHGAAMKSGAITLGFNLSAQTLSDPGLWDFVDSIIEETGAPHSGIGFEITETAAVTNFDAAETFVRKARERRCKVSLDDFGAGMSSFEYLRRFPVDAIKIDGSFIEHMAESRFDREIVSAISGIARSVGCTVVAEKIEQAETLGILQTMGVDFGQGFLLHRPEPLEQIVARAAGPARAAPARKAS	failed
MLENIRIVLIETSHSGNIGSAARAMKTMGLTQLCLVSPKSVDEQSYALSAGAENIVKNARVVDSFDEAVDDCPLVIGTSARLRHLQNTLIEPRECAEKVVAYKGKIAIVFGRERIGLTNEELLKCHYHLNIPANPDYSSLNLAMAVQLVSYELRMAFLVQNNKKNSLSLIEKNYPTTDQLAYFFDYTERIYQSLGFIQNQGVMRKLKRLYYRAKLEKNELNILNGMLSAVEKRIDLTKEDN	not failed
MIVGGRRAPLPRFFSRPVEFAALSLDPEKDPIDVFDDAYFFVHAAFSHVPGKYRGGEGDDPKSFHRLNLDGTVRLFEAAKRAGTRRCVFLSSRAAYGDYPPGIELVETMLPKPETLYGQIKLDAEGALTHLSAPGFAGVSLRATGVYGDLTPGKWDDLIADYLAGRPVAARAGTEVHGRDLGRAVRLMLETESTRISGEVFNISDITVDTQDILAPIRRETSGPHALPPPADKAALNPMSTAKIRALGWMPGGTPLFEETMRRLAAALPVSPRHRSAQDRQASSSGGRQPQTGTT	failed
FGAEFSSEACRELGFSSNLLCSSCDLLGQFNLLQLDPDCRGCCQEEAQFETKKLYAGAILEVCGUKLGRFPQVQAFVRSDKPKLFRGLQIKYVRGSDPVLKLLDDNGNIAEELSILKWNTDSVEEFLSEKLERI	failed
MRCRVYYEDTDSEGVVYHANYLKYCERARSEFFFKQNVLPENEEGVFVIRSIKADFFTPASLGQVLEIRTQIKELRKVFVVLFQEIYCIQNASLEPMKPFKVFASEIKFGFVNRSTYSPIAIPKLFKELLNAI	failed
